The conditions of series [1]: literature values; cited from earlier work.
Series [2] in a line: Kinetic analysis of purified RsTAL with phenylalanine (Lineweaver-Burk). The note with it: substrate phenylalanine. In kind it is biochemical. As for the experimental part:
(§1) A 500 mL culture of the E. coli BL21(DE3)RP(pKK233.RsTAL2) strain was grown in LB Broth, containing […] ampicillin to mid log phase, induced with 1 mM IPTG, and incubated overnight (18 h) in a 37° C. shaker. The cells were centrifuged and resuspended in 10 mL of Buffer A (50 mM Tris-HCl, pH 8.5 buffer, 5 mM DTT (dithiothreitol), and 1 mM tyrosine) containing one and a half EDTA-free protease inhibitor tablets (Roche Applied Science, Indianapolis, Ind.). The cells were then passed through a French Press Cell twice, and centrifuged at 18000 rpm for 20 min. Ammonium sulfate at 30% saturation was added to the […] supernatant and the resulting precipitate was removed by centrifugation. The supernatant from this first fractionation was then treated with ammonium sulfate at 50% saturation. […] The eluted fractions were analyzed for TAL activity, and the fractions containing TAL activity were pooled, precipitated again using ammonium sulfate at 50% saturation, and desalted using a 3 mL desalting column (Bio-Rad Laboratories, Hercules, Calif.). […] TAL activity was detected in the flow-through fractions. […]
The kinetic parameters of the RsTAL enzyme were characterized using'the TAL enzyme assay described above. The initial rates of the enzyme reaction were measured at tyrosine concentrations of 0.01 to 10 mM in 50 mM Tris-HCl, pH 8.5 buffer. […]

Series [3] can be described thus: Kinetic analysis of purified RsTAL with tyrosine (Lineweaver-Burk). In kind it is biochemical. On the procedure:
Crude cell extracts were generated by sonication of a suspension of the transformed cells, followed by centrifugation. The TAL enzyme activity of the crude cell extracts was determined by an enzyme assay using 40 μg of crude cell extract in 10 mM Tris-HCl, pH 8.5 buffer containing 1 mM tyrosine. The OD of the pHCA produced was followed at 315 nm with an extinction coefficient of […]. The results of the TAL enzyme assay are given in Table 5 in terms of activity units. A unit (U) is defined as follows: one unit of activity deaminated 1 μmol of tyrosine to pHCA per min.
as §1
The kinetic parameters of the RsTAL enzyme were characterized using'the TAL enzyme assay described above. The initial rates of the enzyme reaction were measured at tyrosine concentrations of 0.01 to 10 mM in 50 mM Tris-HCl, pH 8.5 buffer. The values of kcat and Km of the RsTAL enzyme for both tyrosine and phenylalanine were determined using Lineweaver-Burk analysis and the results are given in Table 6.

Setting [4] is: substrate tyrosine, 50 mM Tris-HCl, pH 8.5.

B1: TAL enzyme from Trichosporon cutaneum: inducible TAL enzyme isolated from the yeast Trichosporon cutaneum (protein)
chain: MFIETNVAKPASTKAMNAGSAKAAPVEPFATYAHSQATKTVSIDGHTMKVGDVVAVARHGAKVELAASVAGPVRASVDFKESKKHTSIYGVTTGFGGSADTRTSDTEALQISLLEHQLCGFLPTDATYEGMLLAAMPIPIVRGAMAVRVNSCVRGHSGVRLEVLQSFADFINRGLVPCVPLRGTISASGDLSPLSYIAGAICGHPDVKVFDTAASPPTVLTSPEAIAKYGLKTVKLASKEGLGLVNGTAVSAAAGALALYDAECLAIMSQTNTVLTVEALDGHVGSFAPFIQEIRPHAGQIEAARNIRHMLGGSKLAVHEESELLADQDAGILRQDRYALRTSAQWIGPQLEALGLARQQIETELNSTTDNPLIDVEGGMFHHGGNFQAMAVTSAMDSARIVLQNLGKLSFAQVTELINCEMNHGLPSNLAGSEPSTNYHCKGLDIHCGAYCAELGFLANPMSNHVQSTEMHNQSVNSMAFASARRTMEANEVLSLLLGSQMYCATQALDLRVMEVKFKMAIVKLLNETLTKHFAAFLTPEQLAKLNTHAAITLYKRLNQTPSWDSAPRFEDAAKHLVGVIMDALMVNDDITDLTNLPKWKKEFAKEAGNLYRSILVATTADGRNDLEPAEYLGQTRAVYEAVRSELGVKVRRGDVAEGKSGKSIGSSVAKIVEAMRDGRLMGAVGKMF
modifications: T. cutaneum
Regarding B1, in series [1], the PAL/TAL activity ratio is on record as 0.73.

B2: RsTAL: the TAL enzyme from Rhodobacter sphaeroides, 526 amino acids, SEQ ID NO:3 (protein)
chain: VKPMLAMSPPKPAVELDRHIDLDQAHAVASGGARIVLAPPARDRCRASEARLGAVIREARHVYGLTTGFGPLANRLISGENVRTLQANLVHHLASGVGPVLDWTTARAMVLARLVSIAQGASGASEGTIARLIDLLNSELAPAVPSRGTVGASGDLTPLAHMVLCLQGRGDFLDRDGTRLDGAEGLRRGRLQPLDLSHRDALALVNGTSAMTGIALVNAHACRHLGNWAVALTALLAECLRGRTEAWAAALSDLRPHPGQKDAAARLRARVDGSARVVRHVIAERRLDAGDIGTEPEAGQDAYSLRCAPQVLGAGFDTLAWHDRVLTIELNAVTDNPVFPPDGSVPALHGGNFMGQHVALTSDALATAVTVLAGLAERQIARLTDERLNRGLPPFLHRGPAGLNSGFMGAQVTATALLAEMRATGPASIHSISTNAANQDVVSLGTIAARLCREKIDRWAEILAILALCLAQAAELRCGSGLDGVSPAGKKLVQALREQFPPLETDRPLGQEIAALATHLLQQSPV
modifications: R. sphaeroides
Usually Km stands for the concentration of substrate that gives half-maximal velocity. Broadly, the kcat is the maximal rate divided by the concentration of active sites. Take B2: in series [2], the Km turned out to be 560 µM and the kcat is 0.01 s⁻¹. Moreover, in series [3] (setting [4]), the Km amounted to 60 µM and the turnover number (kcat) was determined as 0.02 s⁻¹. In addition, in series [3] (tyrosine versus phenylalanine as substrate), the “TAL/PAL Ratio” value turned out to be 19.

B3: wild-type PAL/TAL enzyme from the yeast Rhodosporidium: wild-type PAL/TAL enzyme from the yeast Rhodosporidium (protein, UniProt P11544 1-716, looked up)
Phenylalanine/tyrosine …: MAPSLDSISHSFANGVASAKQAVNGASTNLAVAGSHLPTTQVTQVDIVEKMLAAPTDSTLELDGYSLNLGDVVSAARKGRPVRVKDSDEIRSKIDKSVEFLRSQLSMSVYGVTTGFGGSADTRTEDAISLQKALLEHQLCGVLPSSFDSFRLGRGLENSLPLEVVRGAMTIRVNSLTRGHSAVRLVVLEALTNFLNHGITPIVPLRGTISASGDLSPLSYIAAAISGHPDSKVHVVHEGKEKILYAREAMALFNLEPVVLGPKEGLGLVNGTAVSASMATLALHDAHMLSLLSQSLTAMTVEAMVGHAGSFHPFLHDVTRPHPTQIEVAGNIRKLLEGSRFAVHHEEEVKVKDDEGILRQDRYPLRTSPQWLGPLVSDLIHAHAVLTIEAGQSTTDNPLIDVENKTSHHGGNFQAAAVANTMEKTRLGLAQIGKLNFTQLTEMLNAGMNRGLPSCLAAEDPSLSYHCKGLDIAAAAYTSELGHLANPVTTHVQPAEMANQAVNSLALISARRTTESNDVLSLLLATHLYCVLQAIDLRAIEFEFKKQFGPAIVSLIDQHFGSAMTGSNLRDELVEKVNKTLAKRLEQTNSYDLVPRWHDAFSFAAGTVVEVLSSTSLSLAAVNAWKVAAAESAISLTRQVRETFWSAASTSSPALSYLSPRTQILYAFVREELGVKARRGDVFLGKQEVTIGSNVSKIYEAIKSGRINNVLLKMLA
Regarding B3, the “TAL/PAL ratio (TAL catalytic activity to PAL catalytic activity)” value in series [1] is 0.58.
